Assay: label from the status in PepcDB records
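Further: failed if final PepcDB status was selected cloned or expressed and not failed if soluble or beyond.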

Row | Sequence | protein production
1 | MNLFAPPALFRHFHRMAWLAALFTASTILFGSFVRLSDAGMSCPDWPTCYGRVTWPQTSDEANTHVASKIRPLESHKAWREQVHRFLAGALGVEVLVLSLLAVRRRRMGIAQVVSAAVLVALSIPLYMSGWHATAFGMAITGEAILLLAALRWSNIDLARAAVLTLAVVIFQALLGMWTVTLLLKPIVVMGHLLGGMLMFSLLVWMAWRATHLPITLADASRLKWLLRLGVAVLGLQIALGGWVSANYAALACGGGSWSADNFPRCVSQWWPPHDFREGFTLWRGIGVDYEGGVLDGAARIAIQMAHRLWAIATALYLWWLAWRLSRSPGMRVWAGALALLVAVQVTLGMLNVKLALPLEVSLMHNGGAVALLFVLVSLLARLRAPE | failed
2 | MNLFVLLFVFVFGIIGSYSSKFSEKNLFWLFVIVLAIIIGGRSISVPDTDQYLEFYQLTLSSSILDIPLYSYEIGFQLLTKILKLITNGSSFFYFGIIVLINSYFLFKSFSCFTDQSYPSKKSSGTLINQIKLQEFLLLYFSYWGLYYTGIVLRAGIAMSILIYLSTLLCSPYISLKKWSAIFLLAIISCSFHITALLGIIALIIFYISKKMTMRSYLLLFLLICIILFGKVSFWIVDMLDRNMPMIFSLIEDTDFAKLQAYSNIDASIKISFRFLFCLLIGLFFIICKRMPLYYYKYLNVYIVGLFLGALFSAIEAFSRIMDFFVIYSFILISMRLSTINSFKIRFSIMFSIVLIQLLFVYRIIIGL | failed
3 | MNLGILLGFLIYLVLLAYIGWWANRYTKTEEQYFIGGRKVHVLAATLSDKASDFSGWLMLGYPGTAFKTGLGAFWAAIGCLFGTLADYLLIGPRLRIYAGKFRSITLPDYLEARLKDNTKLIRILSAAIILIFMTAYVAAQFAAGGKTFSEAFGVSVTTGILITVIILTAYVITGGFFAVVWTDVVQAMFMLLTLIIMPILALAEIGGLDKATQIIGSVNPAKLHPFGGATGLAAIVFAIGYASWIVGYLGQPHIVTRYMSVEDPRKLRRPGIFISGIWTTIVLWGAFFAGFLGFALAINGSIKIDDPEKIVPAMAVHFLPSWIAGFVIAGIISAVMSTADSQLLVASSAIARDIYHKVLGQELGKKQMVNISRVVVAIVSLIAMWFAISGPKVIYQMVATAWGGLAVGFGPILTLSLWWKRVTKEAGIIGMGYGLISEVLLEAKIYGWAFNPNAPGFFGTLGKWFNGVPVFFINFFITLLVIIIVSLLTKPPEDVVKLHKELFKKVPIEKSEKIKVARAKSQAENVFDFAIASGLL | failed
4 | MNLILYLVTVFVALFAMVNPIGALPVLVSVTEGYSKDDFERVVRYAAMSEALMLFSFMLIGIYIFEVLGININDFKVAGGVLLFKVAFDMLQGRTSTTKLTPAETEESIERTSIGIAPIGTPLLAGPGSITAAIIYFNSYSVNIPEKIAVVISVSLVVVISYFILHYSSVLFKYLGKTGSLIISRIMGLLLAAIAVDFMVTGLAFIVKSITGV | failed
5 | MNLKDLLAHRENLMDSAKRARSAITDDMDPADAAQAVENVKSIISEIESTDEAIAARRGVSDVTQKLKGLTITERGTENDSAASRSLGEHFVKAAGDRLKNQAAGAHIEYSVPEYQVKEDAHSSPKDLVEGWGTFYQRGIINQRRERLVAADLMGAATVTASTVKYIVEKANRIASGAPATVAEGTKKPYVKYADFDVVTESLSKVAALAKFTDEMIEDYDFVASWINNNLVYDLSVVEEKQLINGDGRGSNIKGLLNREGIQTHKSAKQADWFNDLFKAKNKVSQATNLEADGIMINPVNYEALRLTKDGNGQYIAGGPFQGQYGNGNILIDPPLWGIKTVVSNAVPAGTAIVGAFRQGATVLRKGGVRVDSANTNADDFENNLVTLRAEERLGLMVPLPAAFVKVTLEETTEEL | not failed
6 | MNLKQIAKDTAKTLQSYLTYQALMTVLAQLGETNPPLALWLHTFSVGKVQDGEAYVKELFREQPDLALRIMTVREHIAEEVAEFLPEMVRSGIQQANMEQRRQHLERMTHLSLSNPSPESEQQTISDTDWDH | failed
7 | MNLKTLKIFIEGYGCTLNTADTNIINNSIKKFKNFIIVNNLDDADIVVINTCVVRLETEHKMISRINYIKSLNKYIVIAGCMPKALKKKAEKINPDILIMPKEAHLIGDIIYNYFKNNIGNENNADNKIEDSMKCGELPHNQASSSGNYNDIDNKLTQLKPNNLIMPLPISEGCTGKCTYCIVKIARGRLASYNPDKIINKAKEFVDNGVKQMLITSQDTACYGFDKNTTLPTLLNEICQIKGDFNIRIGMMHAKNVPMIIDELIDRYKDDKITKFFHLPIQSGDDDVLRAMKREYTVDEYMDIAMEFKRKIKDLNFNTDVIVGFPTETEDNFNNTIELLKKLKPDAIHGAKYTQRKGTEADRLKQVDTKIRKERMKILDKLRKEFSLENHEKYVGKIMPCLIVGKNEGITHNCKTVKFENCEDVKIGEFRKIKIKEALTFGLYGEIIN | failed
8 | MNLLIENIRGISYALVSPTLSLMLIVIAIIFYFKNRKIAFMQKLMLGRSIQSPLEMTLLQILIGILGGLIASLLLSILGVTFENSSLIDVILTVSVFSVLYKNRFLKFPYIAALLGVIGVLVSKNTEYFGRGFSFSINLTSIIVLIGVFSIVEGILAMIDGDKGYLPIFTQKDGKLVGGFGFKRFWALPLCLLVVLGANSGNSIINEVKDLPQWLPFFNGDKARALMSVAALGTLAAYGATSYEGTTFTQSKRSKTITSGLINIAYGIVVIILAYLLKESLVFTIALIILIPLLYELRIRMELKLESLREPLYFSNDDEICILDVLPNSIAYKKGLRSGDKIVKINEEIPKNEKEVFMAIKRNFYGLDLEIRKNNGNIEKHTITGEDRGKQFGIVLVPKGISFDKEIDEFLEKLKKASKDEEVKNK | failed
9 | MNLLTVSTDLISIFLFTTLFLFFARKVAKKVGLVDKPNFRKRHQGLIPLVGGISVYAGICFTFGIVDYYIPHASLYLACAGVLVFIGALDDRFDISVKIRATIQAAVGIVMMVFGKLYLSSLGYIFGSWEMVLGPFGYFLTLFAVWAAINAFNMVDGIDGLLGGLSCVSFAAIGMILWFDGQTSLAIWCFAMIAAILPYIMLNLGILGRRYKVFMGDAGSTLIGFTVIWILLETTQGKTHPISPVTALWIIAIPLMDMVAIMYRRLRKGMSPFSPDRQHIHHLIMRAGFTSRQAFVLITLAAALLASIGVLAEYSHFVPEWVMLVLFLLAFFLYGYCIKRAWKVARFIKRVKRRLRRNRGGSPNLTK | failed
10 | MNLLYVVLIGQILLFLIGAIYAMRQTKRTKDNMPLPLAIRLILSFSLTGSAIWIWLQDPSVEYSTWVALGMTLSTVGDLFMAGLIPIGHRLIGGMVTFALAHCFYVKAFLQTGISWNGFWIGLLVYGLFLIVGWFFFIRNDKQDKLFTIGALIYGLWVGGMACFAFALYYENTGIWWIPAFGGLLFVISDFIIGVTDIGGRKLKYEPLWIWFTYVAAQMCIVYVGL | failed
11 | MNLMRFLRRPISLRQRLILTIGAILLVFELISVFWLWHESTEQIQLFEQALRDNRNNDRHIMREIREAVASLIVPGVFMVSLTLFICYQAVRRITRPLAELQKELEARTADNLTPIAIHSATLEIEAVVSALNDLVSRLTSTLDNERLFTADVAHELRTPLAGVRLHLELLAKTHHIDVAPLVARLDQMMESVSQLLQLARAGQSFSSGNYQHVKLLEDVILPSYDELSTMLDQRQQTLLLPESAADITVQGDATLLRMLLRNLVENAHRYSPQGSNIMIKLQEDGGAVMAVEDEGPGIDESKCGELSKAFVRMDSRYGGIGLGLSIVSRITQLHHGQFFLQNRQETSGTRAWVRLKKDQNVANQI | failed
12 | MNLNNIRSSMTESTKSKDESMRSHLVKPGSVYDGIEPGELGETTESVQDRVRQLESRNSFLEEQCSQIESEKRYLENQKIKYEREIRKLQSELDRMKTSPLIIGTVIDVIKNDRIIVRSSNGPQFLVNVSQYIDEKKLLPGAKVALNQHTLAIAEVIPSTEEPFVAAMEVIESVEVDYDQIGGLDEQIQELQEAVELPLTSPERFARIGIEPPKGVLLYGLPGTGKTLLAKAVAHRTNATFIRVVGSELVQKYIGDGSKLVREIFEMARKKAPSIIFIDELDSIAARRLNETTGADREVQRTLMQLLAEMDGFDKRKNIRIIAATNRPDVLDPAILRPGRFDRLVHVPMPGIEARGKILKIHCEKMTLAEDIDFKKLAKATEGMSGADLKAIATEAGMFAVRRDKELVEMEEFLEAVEKVSMAADTQKMMPSNLPETMFV | failed
13 | MNLSKFPVYVQAAILALVLALVGYLVAQALQFSLKAEVIFAVGLAIGGFVVPLFLNRAPAGVAELASSQETCTLYVGNLPYRANEIAVRELFAEQGQVISVRLMKDKATGKRRGFGFVEMPAADAAKAIAALNDKEYQQRTLKVREANDKRDKDEREGSEVDA | failed

— a protein production outcome set (Wang et al. 2014)
